Measurements published in patent publication US20210206856A1 (PANDION OPERATIONS, published 2021).
Positions count from the first letter of the chain named.

T1: mouse MAdCAM expressed on cells (mouse, UniProt Q61826 22-405)
T1 construct: whole, on cells
T1 sequence (looked up): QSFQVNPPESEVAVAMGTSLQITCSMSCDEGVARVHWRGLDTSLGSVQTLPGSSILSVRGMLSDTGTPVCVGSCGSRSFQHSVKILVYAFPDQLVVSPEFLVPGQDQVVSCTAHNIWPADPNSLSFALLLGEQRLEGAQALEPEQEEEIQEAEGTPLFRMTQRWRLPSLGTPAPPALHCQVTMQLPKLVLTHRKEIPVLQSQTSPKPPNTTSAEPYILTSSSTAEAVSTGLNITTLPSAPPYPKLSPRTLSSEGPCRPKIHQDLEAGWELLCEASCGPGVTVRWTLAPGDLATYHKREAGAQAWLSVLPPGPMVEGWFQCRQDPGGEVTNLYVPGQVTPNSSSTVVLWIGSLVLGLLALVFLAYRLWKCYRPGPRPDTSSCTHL

T2: human MAdCAM expressed on cells (human, UniProt Q13477 19-382)
T2 construct: whole, on cells; also called MADCAM1
T2 sequence (looked up): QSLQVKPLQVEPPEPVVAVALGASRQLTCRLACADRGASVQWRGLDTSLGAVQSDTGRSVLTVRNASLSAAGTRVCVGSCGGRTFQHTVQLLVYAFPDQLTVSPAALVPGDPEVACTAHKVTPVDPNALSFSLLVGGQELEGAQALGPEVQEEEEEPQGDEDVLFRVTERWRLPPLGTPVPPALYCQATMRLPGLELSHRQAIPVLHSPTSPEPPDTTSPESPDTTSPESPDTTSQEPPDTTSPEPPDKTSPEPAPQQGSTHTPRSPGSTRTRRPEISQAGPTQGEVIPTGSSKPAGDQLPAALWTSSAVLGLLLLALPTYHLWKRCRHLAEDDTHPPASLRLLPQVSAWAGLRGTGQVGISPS

B1: MAdCAM Antibody Table 1 Clone 10 (scFv)
scFv: QVQLVQSGAEVKKPGASVKVSCKASGYTLTTWYMYWVRQAPGQGLEWMGWINPNRGATNYAQKFQGRVTMTRDTSTSTVYMELSSLRSEDTAVYYCAKGDLWGAMDVWGQGTLVTVSSGGGGSGGGGSGGGGSGGGGSDIQMTQSPSSLSASVGDRVTITCRASDNIGSWLAWYQQKPGKAPKLLIYAASSLQSGVPSRFSGSGSGTDFTLTISSLQPEDFATYYCQQGYSTPPTFGQGTKVEIK
B2: MAdCAM Antibody Table 1 Clone 26 (scFv)
scFv: B1 scFv with L113T
B3: MAdCAM Antibody Table 1 Clone 27 (scFv)
scFv: QVQLVQSGAEVKKPGASVKVSCKASGYTFTGYYIHWVRQAPGQGLEWMGWMNPNSGNTGYAQKFQGRVTMTRDTSTSTVYMELSSLRSEDTAVYYCARDPGFLGYCSGGSCYDGWFDPWGQGTLVTVSSGGGGSGGGGSGGGGSGGGGSDIQMTQSPSSLSASVGDRVTITCRASQSISSYLHWYQQKPGKAPKLLIYAASSLQSGVPSRFSGSGSGTDFTLTISSLQPEDFATYYCQQSYTAPYTFGQGTKLEIK
B4: MAdCAM Antibody Table 1 Clone 28 (scFv)
scFv: QVQLVQSGAEVKKPGASVKVSCKASGYTFTDYFLHWVRQAPGQGLEWMGWMNPTSGNTGYAQKFQGRVTMTRDTSTSTVYMELSSLRSEDTAVYYCAREGEGSGFDYWGQGTLVTVSSGGGGSGGGGSGGGGSGGGGSDIQMTQSPSSLSASVGDRVTITCRASQGINSWLAWYQQKPGKAPKLLIYDASNLETGVPSRFSGSGSGTDFTLTISSLQPEDFATYYCQQSYSTPLTFGGGTKVEIK
B5: MAdCAM Antibody Table 1 Clone 29 (scFv)
scFv: QVQLVQSGAEVKKPGASVKVSCKASGYTFTSYYMHWVRQAPGQGLEWMAWMNPNSGNTGYAQKFQGRVTMTRDTSTSTVYMELSSLRSEDTAVYYCARDYDFWSGSLGYWGQGTLVTVSSGGGGSGGGGSGGGGSGGGGSDIQMTQSPSSLSASVGDRVTITCRASQGISNYLAWYQQKPGKAPKLLIYAASSLQSGVPSRFSGSGSGTDFTLTISSLQPEDFATYYCQQSYSTPWTFGQGTKVEIK
B6: MAdCAM Antibody Table 1 Clone 31 (scFv)
scFv: QVQLVQSGAEVKKPGASVKVSCKASGYTFTSYYMHWVRQAPGQGLEWMGIINPSGGSTSYAQKFQGRVTMTRDTSTSTVYMELSSLRSEDTAVYYCARDTGYSYGRYYYYGMDVWGQGTLVTVSSGGGGSGGGGSGGGGSGGGGSDIQMTQSPSSLSASVGDRVTITCRASQSIGRWLAWYQQKPGKAPKLLIYDASNLQSGVPSRFSGSGSGTDFTLTISSLQPEDFATYYCQQSYSIPITFGQGTKVEIK
B7: MAdCAM Antibody Table 1 Clone 36 (scFv)
scFv: B6 scFv with S31G, Y32H, L120T, Q245G
B8: MAdCAM Antibody Table 1 Clone 32 (scFv)
scFv: QVQLVQSGAEVKKPGASVKVSCKASGYTLTDYYMHWVRQAPGQGLEWMGIINPSGGSTSYAQKFQGRVTMTRDTSTSTVYMELSSLRSEDTAVYYCAREEYSSSSGYFDYWGQGTLVTVSSGGGGSGGGGSGGGGSGGGGSDIQMTQSPSSLSASVGDRVTITCRASQGISSWLAWYQQKPGKAPKLLIYAASSLQSGVPSRFSGSGSGTDFTLTISSLQPEDFATYYCQQSYSTPLTFGQGTKVEIK
B9: MAdCAM Antibody Table 1 Clone 33 (scFv)
scFv: QVQLVQSGAEVKKPGASVKVSCKASGYTFTSYGISWVRQAPGQGLEWMGWMHPKSGDTGLTQKFQGRVTMTRDTSTSTVYMELSSLRSEDTAVYYCARDTPYYYYGMDVWGQGTTVTVSSGGGGSGGGGSGGGGSGGGGSDIQMTQSPSSLSASVGDRVTITCRASQSISSWLAWYQQKPGKAPKLLIYAASSLQSGVPSRFSGSGSGTDFTLTISSLQPEDFATYYCQQSYSVPITFGQGTKVEIK
B10: MAdCAM Antibody Table 1 Clone 35 (scFv)
scFv: EVQLLESGGGLVQPGGSLRLSCAASGFSFSSYTMNWVRQAPGKGLEWVSFITSSSRTIYYADSVKGRFTISRDNSKNTLYLQMNSLRAEDTAVYYCARDRRGDYGDSWYFDLWGRGTLVTVSSGGGGSGGGGSGGGGSGGGGSEIVMTQSPATLSVSPGERATLSCRASQSVRNYLAWYQQKPGQAPRLLIYGASTRATGIPARFSGSGSGTEFTLTISSLQSEDFAVYYCQQYGSSPLTFGGGTKVEIK
B11: MAdCAM Antibody Table 1 Clone 37 (scFv)
scFv: QVQLVQSGAEVKKPGASVKVSCKASGYTFSKHFVHWVRQAPGQGLEWMGWMNPNSGNSGYAQKFQGRVTMTRDTSTSTVYMELSSLRSEDTAVYYCARGEGGYYYYGMDVWGQGTLVTVSSGGGGSGGGGSGGGGSGGGGSDIQMTQSPSSLSASVGDRVTITCRASQSISSWLAWYQQKPGKAPKLLIYAASTLQSGVPSRFSGSGSGTDFTLTISSLQPEDFATYYCQQSYSTPWTFGQGTKVEIK
B12: MAdCAM Antibody Table 1 Clone 38 (scFv)
scFv: EVQLLESGGGLVQPGGSLRLSCAASGFTFGSYSMSWVRQAPGKGLEWVSAIGTGGGTYYADSVKGRFTISRDNSKNTLYLQMNSLRAEDTAVYYCAKGTPYYYYYGMDVWGQGTMVTVSSGGGGSGGGGSGGGGSGGGGSDIQMTQSPSSLSASVGDRVTITCRASQPLSNWLAWYQQKPGKAPKLLIYAASSLQSGVPSRFSGSGSGTDFTLTISSLQPEDFATYYCQQAISFPLTFGGGTKVEIK
B13: MAdCAM Antibody Table 1 Clone 39 (scFv)
scFv: QVQLVQSGAEVKKPGASVKVSCKASGYTFTSYYMHWVRQAPGQGLEWMGWMNPNSGNTGYAQKFQGRVTMTRDTSTSTVYMELSSLRSEDTAVYYCARDLGYYDSSGYFGAFDIWGQGTTVTVSSGGGGSGGGGSGGGGSGGGGSDIQMTQSPSSLSASVGDRVTITCQSSEDISSSLNWYQQKPGKAPKLLIYAASSLQIGVPSRFSGSGSGTDFTLTISSLQPEDFATYYCQQTYSTPYTFGQGTKVEIK
B14: MAdCAM Antibody Table 1 Clone 40 (scFv)
scFv: QVQLVQSGAEVKKPGASVKVSCKASGYTFTSYGISWVRQAPGQGLEWMGIINPRGGSTIFAQKFQGRVTMTRDTSTSTVYMELSSLRSEDTAVYYCARGTRSSGWYGWFDPWGQGTLVTVSSGGGGSGGGGSGGGGSGGGGSDIQMTQSPSSLSASVGDRVTITCRASQGIGNWLAWYQQKPGKAPKLLIYAASNLETGVPSRFSGSGSGTDFTLTISSLQPEDFATYYCQQIHSYPLTFGGGTKVEIK
B15: MAdCAM Antibody Table 1 Clone 42 (scFv)
scFv: QVQLVQSGAEVKKPGSSVKVSCKASGGTLSRYGVSWVRQAPGQGLEWMGGIIPIFGTTNYAQKFQGRVTITADESTSTAYMELSSLRSEDTAVYYCARDRVYYDSSGYPTWYFDLWGRGTLVTVSSGGGGSGGGGSGGGGSGGGGSEIVMTQSPATLSVSPGERATLSCRASQSVSSSYLAWYQQKPGQAPRLLIYGASTRATGIPARFSGSGSGTEFTLTISSLQSEDFAVYYCQQYGSSPITFGQGTKVEIK

Molecular target: T1, mouse MAdCAM expressed on cells
Test: cell binding

Binder	binding result
B1	no binding
B2	no binding
B3	no binding
B4	no binding
B5	no binding
B6	no binding
B7	no binding
B8	no binding
B9	no binding
B10	no binding
B11	no binding
B12	no binding
B13	no binding
B14	no binding
B15	no binding

Molecular target: T2, human MAdCAM expressed on cells
Test: cell binding

Binder	binding result
B1	binds
B2	binds
B3	binds
B4	binds
B5	binds
B6	binds
B7	binds
B8	binds
B9	binds
B10	binds
B11	binds
B12	binds
B13	binds
B14	binds
B15	binds
